According to PMC8011978:

How the values were obtained:
[1] = molecular target: LAdV-2 protein LH3 (lizard atadenovirus LAdV-2); assay: cryo-EM structure
[2] = molecular target: LAdV-2 penton base protein (lizard atadenovirus LAdV-2); assay: cryo-EM structure

| Substance | stoichiometry N [1] | stoichiometry N [2] |
| --- | --- | --- |
| LAdV-2 protein LH3 (natural protein) | 3 | – |
| LAdV-2 penton base protein (natural protein) | – | 5 |
